Here are results for two substances from patent US20190263882A1.

In experiment [1] the target is T1, hLGR7 (UL-hLGR7-Cre-Luc reporter cell line) (human ('hLGR7')) (UniProt Q9HBX9).
T1 sequence (looked up): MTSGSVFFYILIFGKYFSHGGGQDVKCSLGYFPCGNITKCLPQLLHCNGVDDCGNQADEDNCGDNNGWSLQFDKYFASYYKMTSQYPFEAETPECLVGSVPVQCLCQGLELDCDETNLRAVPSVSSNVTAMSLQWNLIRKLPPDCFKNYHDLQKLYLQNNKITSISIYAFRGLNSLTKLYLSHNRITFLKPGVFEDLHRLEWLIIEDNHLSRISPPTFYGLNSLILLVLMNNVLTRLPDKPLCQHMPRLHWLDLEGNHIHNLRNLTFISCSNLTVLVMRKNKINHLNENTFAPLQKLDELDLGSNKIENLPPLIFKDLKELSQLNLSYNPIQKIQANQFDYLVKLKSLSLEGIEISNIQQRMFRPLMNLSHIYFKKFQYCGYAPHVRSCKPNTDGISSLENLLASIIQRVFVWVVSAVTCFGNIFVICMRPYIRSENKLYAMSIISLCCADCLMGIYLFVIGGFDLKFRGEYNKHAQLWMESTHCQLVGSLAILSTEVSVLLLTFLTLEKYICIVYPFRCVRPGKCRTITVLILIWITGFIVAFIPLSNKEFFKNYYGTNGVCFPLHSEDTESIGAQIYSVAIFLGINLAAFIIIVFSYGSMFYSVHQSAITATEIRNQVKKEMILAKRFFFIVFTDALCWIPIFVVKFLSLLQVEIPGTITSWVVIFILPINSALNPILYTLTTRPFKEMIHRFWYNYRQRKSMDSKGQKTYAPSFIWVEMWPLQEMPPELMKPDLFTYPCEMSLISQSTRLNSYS
The experiment is described as follows: cell-based or functional assay.

Experiment [2] has as its target T2, relaxin receptor (LGR7).
T2 sequence (Q9HBX9 whole entry, species assumed, looked up): T1 sequence (looked up)
The experiment is described as follows: cell-based or functional assay.

Experiment [3] deals with T2, relaxin receptor (LGR7). The experiment is described as follows: cell-based or functional assay. This is another data set of the same source.
The target of another experiment is RSV F protein (UniProt P03420). Nature of the experiment: ELISA, 100 ng/well RSV F protein coated, HRP anti-human IgG (Fc specific), QuantaBlu fluorescence (10 min).

Read-outs that look alike come from different tables or passages of the source.

Sequence of RSV F protein (P03420 26-524): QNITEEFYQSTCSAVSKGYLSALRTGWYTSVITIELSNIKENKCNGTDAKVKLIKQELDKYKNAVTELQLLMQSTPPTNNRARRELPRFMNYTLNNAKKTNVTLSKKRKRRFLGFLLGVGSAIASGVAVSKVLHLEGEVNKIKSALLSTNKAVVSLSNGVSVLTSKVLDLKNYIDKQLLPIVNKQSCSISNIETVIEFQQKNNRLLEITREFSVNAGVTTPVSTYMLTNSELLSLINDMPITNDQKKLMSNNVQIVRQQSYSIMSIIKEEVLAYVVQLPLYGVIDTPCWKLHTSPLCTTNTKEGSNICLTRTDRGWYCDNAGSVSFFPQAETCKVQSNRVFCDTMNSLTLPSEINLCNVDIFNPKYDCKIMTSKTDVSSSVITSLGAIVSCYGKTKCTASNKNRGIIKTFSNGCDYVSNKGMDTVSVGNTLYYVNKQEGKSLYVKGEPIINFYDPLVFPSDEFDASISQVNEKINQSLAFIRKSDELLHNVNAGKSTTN

In experiment [1], “relaxin-2 peptide (from UniProt P04090 25-185) (ligand)” showed an EC50, UL-hLGR7-Cre-Luc reporter cell line of 0.02 nM. In experiment [1], this substance had an SA of 1000 units/µg. Also, the EC50, CRE-luciferase reporter assay with relaxin receptor (LGR7) [2] is 0.0223 nM; with relaxin receptor (LGR7) [3] it was 0.022 nM.
As for Herceptin (antibody), in the experiment with RSV F protein, the Kd came out at 1350 nM.
